Experimental data taken from article PMC3306459 (Journal of Inorganic Biochemistry, 2011).
Residue numbers refer to the chain shown, from its start. In names and notes the source's numbering stands.

T1: G450A iNOS full length protein (mouse, UniProt P29477 1-1144, G450A)
T1 sequence (looked up): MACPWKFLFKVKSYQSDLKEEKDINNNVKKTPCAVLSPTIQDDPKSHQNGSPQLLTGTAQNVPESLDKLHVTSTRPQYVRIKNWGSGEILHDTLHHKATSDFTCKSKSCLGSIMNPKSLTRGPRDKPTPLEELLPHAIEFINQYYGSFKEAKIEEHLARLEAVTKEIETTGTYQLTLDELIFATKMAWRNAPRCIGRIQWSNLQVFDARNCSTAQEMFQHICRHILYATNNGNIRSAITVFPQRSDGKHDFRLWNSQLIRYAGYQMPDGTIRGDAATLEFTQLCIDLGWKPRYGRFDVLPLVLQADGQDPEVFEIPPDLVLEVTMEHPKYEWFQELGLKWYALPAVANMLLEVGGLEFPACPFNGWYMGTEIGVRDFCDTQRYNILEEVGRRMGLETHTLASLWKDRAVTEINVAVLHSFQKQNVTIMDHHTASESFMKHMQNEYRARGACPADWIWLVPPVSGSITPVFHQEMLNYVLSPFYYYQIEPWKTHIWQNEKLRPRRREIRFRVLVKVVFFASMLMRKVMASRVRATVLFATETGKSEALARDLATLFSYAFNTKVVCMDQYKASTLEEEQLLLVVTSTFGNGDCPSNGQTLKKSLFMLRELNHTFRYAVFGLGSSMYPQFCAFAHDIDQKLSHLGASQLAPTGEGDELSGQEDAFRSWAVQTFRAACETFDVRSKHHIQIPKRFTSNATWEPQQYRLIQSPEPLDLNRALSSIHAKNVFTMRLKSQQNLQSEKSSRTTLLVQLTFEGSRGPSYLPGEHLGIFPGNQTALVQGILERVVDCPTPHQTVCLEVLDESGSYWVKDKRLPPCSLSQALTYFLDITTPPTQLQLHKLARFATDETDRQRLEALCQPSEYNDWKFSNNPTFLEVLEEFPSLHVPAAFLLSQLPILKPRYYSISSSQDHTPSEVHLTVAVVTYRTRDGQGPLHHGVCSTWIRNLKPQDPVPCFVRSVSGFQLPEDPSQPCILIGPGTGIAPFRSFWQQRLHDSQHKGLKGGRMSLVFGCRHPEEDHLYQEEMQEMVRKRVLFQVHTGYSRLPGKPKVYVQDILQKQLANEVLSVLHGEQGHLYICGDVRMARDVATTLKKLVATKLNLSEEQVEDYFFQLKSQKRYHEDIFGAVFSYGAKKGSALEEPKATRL

B1: wild type Δ65iNOSoxy domain (oxygenase domain of inducible nitric oxide synthase, amino acid 66–498) (domain or fragment, mouse, UniProt P29477 66-498, looked up)
chain: LDKLHVTSTRPQYVRIKNWGSGEILHDTLHHKATSDFTCKSKSCLGSIMNPKSLTRGPRDKPTPLEELLPHAIEFINQYYGSFKEAKIEEHLARLEAVTKEIETTGTYQLTLDELIFATKMAWRNAPRCIGRIQWSNLQVFDARNCSTAQEMFQHICRHILYATNNGNIRSAITVFPQRSDGKHDFRLWNSQLIRYAGYQMPDGTIRGDAATLEFTQLCIDLGWKPRYGRFDVLPLVLQADGQDPEVFEIPPDLVLEVTMEHPKYEWFQELGLKWYALPAVANMLLEVGGLEFPACPFNGWYMGTEIGVRDFCDTQRYNILEEVGRRMGLETHTLASLWKDRAVTEINVAVLHSFQKQNVTIMDHHTASESFMKHMQNEYRARGGCPADWIWLVPPVSGSITPVFHQEMLNYVLSPFYYYQIEPWKTHIWQNE
B2: R375N Δ65iNOSoxy (amino acid 66–498) (domain or fragment, mouse, UniProt P29477 66-498, looked up)
chain: B1 chain with R310N
B3: R375D Δ65iNOSoxy (amino acid 66–498) (domain or fragment, mouse, UniProt P29477 66-498, looked up)
chain: B1 chain with R310D
B4: R375K Δ65iNOSoxy (amino acid 66–498) (domain or fragment, mouse, UniProt P29477 66-498, looked up)
chain: B1 chain with R310K

These binders were tested against T1, G450A iNOS full length protein (assay: cell-based or functional assay).

In order of rising “NO2^- production of the heterodimer, Griess assay” value:
1. B3  1.8 µM
2. B2  6.3 µM
3. B4  7.8 µM
4. B1  30.3 µM

In order of falling “NO synthesis (min^-1) of the heterodimer, oxyhemoglobin assay” value:
1. B1  51.8 min⁻¹
2. B4  17.6 min⁻¹
3. B2  8.6 min⁻¹
4. B3  1.7 min⁻¹

Biological target: the molecule itself
Assay: SEC

In order of falling dimer content:
1. B4  100%
2. B2  38%
3. B3  30%
